Measurements as given in the Immune Epitope Database (IEDB).

Assays:
Experiment in all cases: IEDB peptide-MHC binding, purified MHC/competitive/radioactivity; filed as Kd, often an IC50 or EC50 that approximates it; ≥ and ≤ were set here for values at or beyond the usual limits of such assays
HLA-A*02:06 = target: HLA-A*02:06
HLA-A*02:02 = target: HLA-A*02:02
HLA-A*02:03 = target: HLA-A*02:03
HLA-A*33:01 = target: HLA-A*33:01
HLA-A*03:01 = target: HLA-A*03:01
HLA-A*68:01 = target: HLA-A*68:01
HLA-A*11:01 = target: HLA-A*11:01
HLA-A*31:01 = target: HLA-A*31:01
[1] = source organism: SARS coronavirus Tor2
[2] = source organism: Lymphocytic choriomeningitis virus (strain Armstrong)
[3] = source organism: Vaccinia virus WR
[4] = source organism: Dengue virus 4 Philippines/H241/1956
[5] = source organism: Dengue virus 1 Brazil/97-11/1997
[6] = source organism: Dengue virus 2 Jamaica/1409/1983
[7] = source organism: Mammarenavirus machupoense
[8] = source organism: Triticum aestivum

ALYKGFQFI was tested, and the Kd (HLA-A*02:06; [1]) was 2.03 nM, the Kd (HLA-A*02:02; [1]) was 0.532 nM and the Kd (HLA-A*02:03; [1]) was 3.32 nM.
AVYNFATCGI was tested, and the Kd (HLA-A*02:06; [2]) was 25.2 nM, the Kd (HLA-A*02:02; [2]) was 25.3 nM and the Kd (HLA-A*02:03; [2]) was 7.28 nM.
In the case of DVNSVQFSI, the Kd (HLA-A*02:06; [3]) is reported as 16900 nM, the Kd (HLA-A*02:02; [3]) is reported as 10400 nM and the Kd (HLA-A*02:03; [3]) is reported as 16200 nM.
In the case of EISSNDNAKI, the Kd (HLA-A*02:06; [3]) is reported as 162 nM, the Kd (HLA-A*02:02; [3]) is reported as 11200 nM and the Kd (HLA-A*02:03; [3]) is reported as 194 nM.
EQRRSTIFDI showed a Kd (HLA-A*02:06; [3]) of no less than 25600 nM, a Kd (HLA-A*02:02; [3]) of no less than 23000 nM and a Kd (HLA-A*02:03; [3]) of 11400 nM.
Sequence EVGTNFGTI has a Kd (HLA-A*02:06; [3]) of 19900 nM, a Kd (HLA-A*02:02; [3]) of 5760 nM and a Kd (HLA-A*02:03; [3]) of 1940 nM.
Sequence FLAFLLFLV has a Kd (HLA-A*02:06; [1]) of 9 nM, a Kd (HLA-A*02:02; [1]) of 1.81 nM and a Kd (HLA-A*02:03; [1]) of 58.3 nM.
Work on FLAHYIGTS yielded a Kd (HLA-A*02:03; source organism: Dengue virus 3 Martinique/1243/1999) of 10.7 nM.
Work on FLLPLTSLVI yielded a Kd (HLA-A*02:06; [3]) of 2.5 nM, a Kd (HLA-A*02:02; [3]) of 11.5 nM and a Kd (HLA-A*02:03; [3]) of 5.07 nM.
FLNGSCGSV gave a Kd (HLA-A*02:06; [1]) of 64.5 nM, a Kd (HLA-A*02:02; [1]) of 1.05 nM and a Kd (HLA-A*02:03; [1]) of 0.571 nM.
For FLRPVLKAM, the Kd (HLA-A*02:06; [3]) was 5480 nM, the Kd (HLA-A*02:02; [3]) was 1380 nM and the Kd (HLA-A*02:03; [3]) was 9.75 nM.
For FQESFYEDI, the Kd (HLA-A*02:06; [3]) was 185 nM, the Kd (HLA-A*02:02; [3]) was 2280 nM and the Kd (HLA-A*02:03; [3]) was 4420 nM.
For FQPESPARL, the Kd (HLA-A*02:06; [4]) was 36.9 nM.
Work on FTFGDTALYV yielded a Kd (HLA-A*02:06; [3]) of 3.51 nM, a Kd (HLA-A*02:02; [3]) of 24.3 nM and a Kd (HLA-A*02:03; [3]) of 48.1 nM.
Sequence GIAIFNNRNL has a Kd (HLA-A*02:06; [3]) of 4720 nM, a Kd (HLA-A*02:02; [3]) of 5.12 nM and a Kd (HLA-A*02:03; [3]) of 2040 nM.
GIVAIDLDPV showed a Kd (HLA-A*02:06; [5]) of 9.7 nM.
With GLLDSIKMI the Kd (HLA-A*02:06; [3]) was 43.4 nM, the Kd (HLA-A*02:02; [3]) was 80 nM and the Kd (HLA-A*02:03; [3]) was 14.1 nM.
GMYYPTNDI gave a Kd (HLA-A*02:06; [3]) of 1680 nM, a Kd (HLA-A*02:02; [3]) of 53.1 nM and a Kd (HLA-A*02:03; [3]) of 8.71 nM.
GQVMLLILCV showed a Kd (HLA-A*02:06; [6]) of 77.2 nM.
GVMYAFTTPL gave a Kd (HLA-A*02:06; [3]) of 44.8 nM, a Kd (HLA-A*02:02; [3]) of 34.2 nM and a Kd (HLA-A*02:03; [3]) of 44.4 nM.
With IAMWLLLLSI the Kd (HLA-A*02:06; [1]) was 498 nM, the Kd (HLA-A*02:02; [1]) was 85.8 nM and the Kd (HLA-A*02:03; [1]) was 1900 nM.
Work on ILATLNTLIT yielded a Kd (HLA-A*02:06; [3]) of 629 nM, a Kd (HLA-A*02:02; [3]) of 6.95 nM and a Kd (HLA-A*02:03; [3]) of 12.3 nM.
IMLIIFWFSL showed a Kd (HLA-A*02:06; [1]) of 16800 nM, a Kd (HLA-A*02:02; [1]) of 1540 nM and a Kd (HLA-A*02:03; [1]) of 14900 nM.
Work on ITDDSDDYEL yielded a Kd (HLA-A*02:06; [3]) of 49.3 nM, a Kd (HLA-A*02:02; [3]) of 687 nM and a Kd (HLA-A*02:03; [3]) of 11900 nM.
ITFLRPVLKA showed a Kd (HLA-A*02:06; [3]) of 18000 nM, a Kd (HLA-A*02:02; [3]) of 3160 nM and a Kd (HLA-A*02:03; [3]) of 718 nM.
ITLDILTEI gave a Kd (HLA-A*02:06; [4]) of 8.88 nM.
Work on IVCIVAAVII yielded a Kd (HLA-A*02:06; [3]) of 3560 nM, a Kd (HLA-A*02:02; [3]) of 1460 nM and a Kd (HLA-A*02:03; [3]) of 1590 nM.
Work on IVQLPKRGV yielded a Kd (HLA-A*02:06; [3]) of 3120 nM, a Kd (HLA-A*02:02; [3]) of 12000 nM and a Kd (HLA-A*02:03; [3]) of 8750 nM.
With KIIAVFDSKL the Kd (HLA-A*02:06; [3]) was 59.4 nM, the Kd (HLA-A*02:02; [3]) was 24.6 nM and the Kd (HLA-A*02:03; [3]) was 56.8 nM.
KIVGLYGNGV was tested, and the Kd (HLA-A*02:06; [5]) was 14.7 nM.
Work on KLFKRERDA yielded a Kd (HLA-A*02:06; [3]) of 14900 nM, a Kd (HLA-A*02:02; [3]) of 2390 nM and a Kd (HLA-A*02:03; [3]) of 985 nM.
With KLPTWLGAA the Kd (HLA-A*02:06; [3]) was 9.42 nM, the Kd (HLA-A*02:02; [3]) was 499 nM and the Kd (HLA-A*02:03; [3]) was 8.02 nM.
Sequence KSYFTNAAL has a Kd (HLA-A*02:06; [7]) of 12000 nM, a Kd (HLA-A*02:02; [7]) of 593 nM and a Kd (HLA-A*02:03; [7]) of 7180 nM.
LLAMGCYSQV gave a Kd (HLA-A*02:03; [4]) of 2.67 nM.
LMAIDLGEL showed a Kd (HLA-A*02:03; [6]) of 15.3 nM.
For LMLKATLLCV, the Kd (HLA-A*02:06; [1]) was 63.4 nM, the Kd (HLA-A*02:02; [1]) was 3.39 nM and the Kd (HLA-A*02:03; [1]) was 20.9 nM.
In the case of MAAAKTPVIV, the Kd (HLA-A*02:06; [3]) is reported as 3630 nM, the Kd (HLA-A*02:02; [3]) is reported as 6010 nM and the Kd (HLA-A*02:03; [3]) is reported as 156 nM.
MLLTFLTSL was tested, and the Kd (HLA-A*02:06; [1]) was 3.63 nM, the Kd (HLA-A*02:02; [1]) was 6.21 nM and the Kd (HLA-A*02:03; [1]) was 4.84 nM.
NIGCAVNTPV showed a Kd (HLA-A*02:06; [3]) of 176 nM, a Kd (HLA-A*02:02; [3]) of 126 nM and a Kd (HLA-A*02:03; [3]) of 30.3 nM.
NLLLLFVTI gave a Kd (HLA-A*02:06; [1]) of 456 nM, a Kd (HLA-A*02:02; [1]) of 436 nM and a Kd (HLA-A*02:03; [1]) of 1600 nM.
In the case of NVISKIYTLI, the Kd (HLA-A*02:06; [3]) is reported as 196 nM, the Kd (HLA-A*02:02; [3]) is reported as 0.985 nM and the Kd (HLA-A*02:03; [3]) is reported as 32.7 nM.
PAMSTYSDI showed a Kd (HLA-A*02:06; [3]) of no less than 77100 nM, a Kd (HLA-A*02:02; [3]) of 18300 nM and a Kd (HLA-A*02:03; [3]) of no less than 20600 nM.
Sequence PVDLVKSSFV has a Kd (HLA-A*02:06; [3]) of no less than 26600 nM, a Kd (HLA-A*02:02; [3]) of 6610 nM and a Kd (HLA-A*02:03; [3]) of 9640 nM.
PVVYHDDDNT gave a Kd (HLA-A*02:06; [3]) of 1350 nM, a Kd (HLA-A*02:02; [3]) of 9140 nM and a Kd (HLA-A*02:03; [3]) of no less than 26800 nM.
QILEENMEV showed a Kd (HLA-A*02:06; [4]) of 30.5 nM.
For QLEDSEYLFR, the Kd (HLA-A*33:01; [3]) was 40 nM, the Kd (HLA-A*03:01; [3]) was 376 nM and the Kd (HLA-A*68:01; [3]) was 90.9 nM. The Kd (HLA-A*11:01; [3]) was 79.1 nM and the Kd (HLA-A*31:01; [3]) was 182 nM.
With QLMCQPILL the Kd (HLA-A*02:06; [1]) was 76.9 nM, the Kd (HLA-A*02:02; [1]) was 2.99 nM and the Kd (HLA-A*02:03; [1]) was 11.9 nM.
In the case of QQQQQQQQQK, the Kd (HLA-A*33:01; [8]) is reported as no less than 70000 nM, the Kd (HLA-A*03:01; [8]) is reported as 11200 nM and the Kd (HLA-A*68:01; [8]) is reported as no less than 46700 nM. It also gave a Kd (HLA-A*11:01; [8]) of 4840 nM and a Kd (HLA-A*31:01; [8]) of no less than 23200 nM.
QVKDNIISR gave a Kd (HLA-A*33:01; [3]) of 64.8 nM, a Kd (HLA-A*03:01; [3]) of 2550 nM and a Kd (HLA-A*68:01; [3]) of 11.3 nM. For the same sequence, the Kd (HLA-A*11:01; [3]) was 185 nM and the Kd (HLA-A*31:01; [3]) was 908 nM.
Sequence RAKRKPAMST has a Kd (HLA-A*02:06; [3]) of 1550 nM, a Kd (HLA-A*02:02; [3]) of 977 nM and a Kd (HLA-A*02:03; [3]) of 1380 nM.
RLSAAIGKA gave a Kd (HLA-A*02:03; source organism: Dengue virus 1 Singapore/S275/1990) of 70.7 nM.
RLVEEFFNR gave a Kd (HLA-A*33:01; [3]) of 796 nM, a Kd (HLA-A*03:01; [3]) of 21.2 nM and a Kd (HLA-A*68:01; [3]) of 29.4 nM. It also gave a Kd (HLA-A*11:01; [3]) of 88.1 nM and a Kd (HLA-A*31:01; [3]) of 1.39 nM.
RSKMLKRGSR gave a Kd (HLA-A*33:01; [3]) of 128 nM, a Kd (HLA-A*03:01; [3]) of 279 nM and a Kd (HLA-A*68:01; [3]) of 166 nM. For the same sequence, the Kd (HLA-A*11:01; [3]) was 1170 nM and the Kd (HLA-A*31:01; [3]) was 0.61 nM.
Sequence SCDDVVFGI has a Kd (HLA-A*02:06; [2]) of 14500 nM, a Kd (HLA-A*02:02; [2]) of 2150 nM and a Kd (HLA-A*02:03; [2]) of no less than 50400 nM.
